# B1: SHO1 (protein, UniProt P40073 1-367, looked up)
# High osmolarity signaling …: MSISSKIRPTPRKPSRMATDHSFKMKKFYADPFAISSISLAIVSWVIAIGGSISSASTNESFPRFTWWGIVYQFLIICSLMLFYCFDLVDHYRIFITTSIAVAFVYNTNSATNLVYADGPKKAAASAGVILLSIINLIWILYYGGDNASPTNRWIDSFSIKGIRPSPLENSLHRARRRGNRNTTPYQNNVYNDAIRDSGYATQFDGYPQQQPSHTNYVSSTALAGFENTQPNTSEAVNLHLNTLQQRINSASNAKETNDNSNNQTNTNIGNTFDTDFSNGNTETTMGDTLGLYSDIGDDNFIYKAKALYPYDADDDDAYEISFEQNEILQVSDIEGRWWKARRANGETGIIPSNYVQLIDGPEEMHR
# System: Abp1 PPIs
# Assay: DHFR-PCA of Abp1 SH3-swapped baits (Fig. 2B-D, S2C, S2F);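 on Protein-protein interaction distance between Abp1 SH3-swapped baits, to ABP1: Euclidean distance between DHFR-PCA score profiles of the baits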;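 on Protein-protein interaction distance between Abp1 SH3-swapped baits, to BEM1-2: Euclidean distance between DHFR-PCA score profiles of the baits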;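 on Protein-protein interaction distance between Abp1 SH3-swapped baits, to BOI1: Euclidean distance between DHFR-PCA score profiles of the baits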;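 on Protein-protein interaction distance between Abp1 SH3-swapped baits, to BZZ1-1: Euclidean distance between DHFR-PCA score profiles of the baits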
# Format: cell-based, Saccharomyces cerevisiae
# In short: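 Yeast DHFR-PCA in which Abp1 baits, carrying their SH3 replaced by CRISPR–Cas9 with one of 27 yeast SH3s or human CTTN, HCLS1 or DBNL SH3s, were mated against 575 SH3-associated DHFR F[3] preys plus 40 negative controls. Four tests were run per PPI. Diploids were selected twice (48 h, 30 °C), then grown 4 days on PCA selection media.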
# [1] = number of PPIs, difference, Abp1 SH3-swapped with the listed SH3, Fig2D,S2F
molecule,measurement,setting,value
B1,"Protein-protein interaction distance between Abp1 SH3-swapped baits, to ABP1","Abp1 bait with swapped SH3, distance to bait with ABP1 SH3, sheet Fig2C",8.989
same,"Protein-protein interaction distance between Abp1 SH3-swapped baits, to BBC1","distance to Abp1 bait with BBC1 SH3, sheet Fig2C",7.412
same,"Protein-protein interaction distance between Abp1 SH3-swapped baits, to BEM1-1","distance to Abp1 bait with BEM1-1 SH3, sheet Fig2C",10.91
same,"Protein-protein interaction distance between Abp1 SH3-swapped baits, to BEM1-2","distance to Abp1 bait with BEM1-2 SH3, sheet Fig2C",30.43
same,"Protein-protein interaction distance between Abp1 SH3-swapped baits, to BOI1","distance to Abp1 bait with BOI1 SH3, sheet Fig2C",8.152
same,"Protein-protein interaction distance between Abp1 SH3-swapped baits, to BOI2","distance to Abp1 bait with BOI2 SH3, sheet Fig2C",11.77
same,"Protein-protein interaction distance between Abp1 SH3-swapped baits, to BUD14","distance to Abp1 bait with BUD14 SH3, sheet Fig2C",14.66
same,"Protein-protein interaction distance between Abp1 SH3-swapped baits, to BZZ1-1","distance to Abp1 bait with BZZ1-1 SH3, sheet Fig2C",4.878
same,"Protein-protein interaction distance between Abp1 SH3-swapped baits, to BZZ1-2","distance to Abp1 bait with BZZ1-2 SH3, sheet Fig2C",7.862
same,"Protein-protein interaction distance between Abp1 SH3-swapped baits, to CDC25","distance to Abp1 bait with CDC25 SH3, sheet Fig2C",24.02
same,"Protein-protein interaction distance between Abp1 SH3-swapped baits, to CTTN","distance to Abp1 bait with CTTN SH3, sheet Fig2C",9.013
same,"Protein-protein interaction distance between Abp1 SH3-swapped baits, to CYK3","distance to Abp1 bait with CYK3 SH3, sheet Fig2C",24.75
same,"Protein-protein interaction distance between Abp1 SH3-swapped baits, to DBNL","distance to Abp1 bait with DBNL SH3, sheet Fig2C",4.441
same,"Protein-protein interaction distance between Abp1 SH3-swapped baits, to FUS1","distance to Abp1 bait with FUS1 SH3, sheet Fig2C",16.07
same,"Protein-protein interaction distance between Abp1 SH3-swapped baits, to HCLS1","distance to Abp1 bait with HCLS1 SH3, sheet Fig2C",8.302
same,"Protein-protein interaction distance between Abp1 SH3-swapped baits, to HOF1","distance to Abp1 bait with HOF1 SH3, sheet Fig2C",29.05
same,"Protein-protein interaction distance between Abp1 SH3-swapped baits, to HSE1","distance to Abp1 bait with HSE1 SH3, sheet Fig2C",5.64
same,"Protein-protein interaction distance between Abp1 SH3-swapped baits, to LSB1","distance to Abp1 bait with LSB1 SH3, sheet Fig2C",11.57
same,"Protein-protein interaction distance between Abp1 SH3-swapped baits, to LSB3","distance to Abp1 bait with LSB3 SH3, sheet Fig2C",11.76
same,"Protein-protein interaction distance between Abp1 SH3-swapped baits, to MYO3","distance to Abp1 bait with MYO3 SH3, sheet Fig2C",10.66
same,"Protein-protein interaction distance between Abp1 SH3-swapped baits, to MYO5","distance to Abp1 bait with MYO5 SH3, sheet Fig2C",10.26
same,"Protein-protein interaction distance between Abp1 SH3-swapped baits, to NBP2","distance to Abp1 bait with NBP2 SH3, sheet Fig2C",13.02
same,"Protein-protein interaction distance between Abp1 SH3-swapped baits, to PEX13","distance to Abp1 bait with PEX13 SH3, sheet Fig2C",8.672
same,"Protein-protein interaction distance between Abp1 SH3-swapped baits, to PIN3","distance to Abp1 bait with PIN3 SH3, sheet Fig2C",9.004
same,"Protein-protein interaction distance between Abp1 SH3-swapped baits, to RVS167","distance to Abp1 bait with RVS167 SH3, sheet Fig2C",6.815
same,"Protein-protein interaction distance between Abp1 SH3-swapped baits, to SDC25","distance to Abp1 bait with SDC25 SH3, sheet Fig2C",31.28
same,"Protein-protein interaction distance between Abp1 SH3-swapped baits, to SHO1","distance to Abp1 bait with SHO1 SH3, sheet Fig2C",0.00
same,"Protein-protein interaction distance between Abp1 SH3-swapped baits, to SLA1-1","distance to Abp1 bait with SLA1-1 SH3, sheet Fig2C",26.8
same,"Protein-protein interaction distance between Abp1 SH3-swapped baits, to SLA1-2","distance to Abp1 bait with SLA1-2 SH3, sheet Fig2C",16.55
same,"Protein-protein interaction distance between Abp1 SH3-swapped baits, to SLA1-3","distance to Abp1 bait with SLA1-3 SH3, sheet Fig2C",11.51
same,"Protein-protein interaction distance between Abp1 SH3-swapped baits, to YSC84","distance to Abp1 bait with YSC84 SH3, sheet Fig2C",12.33
same,PPIs gained by Abp1 - SH3-dependent PPIs gained by Abp1,[1],3
same,SH3-dependent PPIs - SH3-dependent PPIs gained by Abp1,[1],1
same,SH3-dependent PPIs gained by Abp1,"number of PPIs, Abp1 SH3-swapped with the listed SH3, DHFR-PCA, Fig2D,S2F",1
